Test results reported in patent US20120283184A1 (published 2012).

Target: T1, human vascular endothelial growth factor receptor-2 Fc chimera (KDR-Fc) (human, UniProt P35968 20-764)
T1 construct: range 1-764; also called human VEGFR-2; not shown: human IgG1 Fc
Experiment: radioactive equilibrium binding, 1 nM KDR-Fc, % of input
Method: To prepare ³⁵S-labeled binding proteins for analysis, mRNA was prepared as described above for RNA-protein fusion production but the linker ligation step was omitted. The mRNA was expressed using rabbit reticulocyte lysate translation kit (Ambion) in the presence of ³⁵S-labeled Met at 30° C. for 1 hour. Expressed protein was purified on M2-agarose Flag beads (Sigma) as described above. This procedure produced the encoded protein without the nucleic acid tail. In a direct binding assay, VEGF-R2-Fc fusions in concentrations ranging from 0 to 200 nM were added to a constant concentration of the purified protein (0.2 or 0.5 nM) and incubated at 30° C. for 1 hour in buffer B. The receptor-binder complexes were captured using Protein A magnetic beads for another 10 minutes at room temperature using a Kingfisher™ The beads were washed with six reaction volumes of buffer B. The protein was eluted from the beads with 100 μL of 0.1 M KOH. 50 μL of the reaction mixture and elution were dried onto a LumaPlate-96 (Packard) and the amount of ³⁵S on the plate was measured using a TopCount NXT instrument (Packard). The amount of fibronectin-based scaffold protein bound to the target was estimated as a percent of radioactivity eluted from Protein A magnetic beads compare to radioactivity in the reaction mixture. Nonspecific binding of fibronectin-based scaffold proteins to the beads was determined by measuring binding in the absence of KDR-Fc and represented less than 1-2% of the input. Specific binding was obtained through subtraction of nonspecific binding from total binding. Data was analyzed using the GraphPad Prizm software (GraphPad Software, Inc, San Diego, Calif.), fitted using a one site, non-linear binding equation.

T1 sequence (P35968 20-764 limits assumed, change not shown, form in doubt): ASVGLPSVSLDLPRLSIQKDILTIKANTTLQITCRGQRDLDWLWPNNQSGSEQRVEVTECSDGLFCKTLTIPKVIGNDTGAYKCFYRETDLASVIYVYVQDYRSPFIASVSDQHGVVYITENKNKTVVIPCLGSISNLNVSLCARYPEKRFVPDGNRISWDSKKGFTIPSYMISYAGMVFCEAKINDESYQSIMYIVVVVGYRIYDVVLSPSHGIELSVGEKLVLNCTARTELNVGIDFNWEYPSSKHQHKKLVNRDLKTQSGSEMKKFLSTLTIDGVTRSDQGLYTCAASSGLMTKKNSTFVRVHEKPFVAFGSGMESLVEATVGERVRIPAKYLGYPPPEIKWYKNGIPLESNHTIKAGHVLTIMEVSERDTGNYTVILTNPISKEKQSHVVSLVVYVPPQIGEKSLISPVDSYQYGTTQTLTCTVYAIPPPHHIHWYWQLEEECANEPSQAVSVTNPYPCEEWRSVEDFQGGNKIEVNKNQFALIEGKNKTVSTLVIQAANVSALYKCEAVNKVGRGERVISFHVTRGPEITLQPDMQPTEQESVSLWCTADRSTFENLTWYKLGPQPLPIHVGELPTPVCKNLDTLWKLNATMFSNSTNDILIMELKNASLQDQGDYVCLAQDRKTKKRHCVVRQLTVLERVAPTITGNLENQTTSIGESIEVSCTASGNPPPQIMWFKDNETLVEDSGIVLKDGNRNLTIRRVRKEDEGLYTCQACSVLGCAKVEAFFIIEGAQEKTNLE

Binding to 1 nM KDR, % [%]	Binder
28	2′Del D1 PR4 (designed binder) EVVAATPTSLLISWRHPHFPTRYYRITYGETGGNSPVQEFTVPLQPPTATISGLKPGVDYTITVYAVTLEQNDRVLLTPISINYRT
20	2′Del F1 PR4 (designed binder) EVVAATPTSLLISWRHPHFPTRYYRITYGETGGNSPVQEFTVPLQPPTATISGLKPGVDYTITVYAVTRDQYEHELLTPISINYRT
19	2′Del E5 PR4 (designed binder) EVVAATPTSLLISWRHPHFPTRYYRITYGETGGNSPVQEFTVPLQPPTATISGLKPGVDYTITVYAVTEGLNDHELIIPISINYRT
18	2′Del D5 PR4 (designed binder) EVVAATPTSLLISWRHPHFPTRYYRITYGETGGNSPVQEFTVPLQPPTATISGLKPGVDYTITVYAVTVAWNDHMLMTPISINYRT
43	2′Del E6 PR4 (designed binder) EVVAATPTSLLISWRHPHFPTRYYRITYGETGGNSPVQEFTVPLQPPTATISGLKPGVDYTITVYAVTMGKNGHELLTPISINYRT
42	2′Del F8 PR4 (designed binder) EVVAATPTSLLISWRHPHFPTRYYRITYGETGGNSPVQEFTVPLQPPTATISGLKPGVDYTITVYAVTAGPGAHELLTPISINYRT
38	2′Del D3 PR4 (designed binder) EVVAATPTSLLISWRHPHFPTRYYRITYGETGGNSPVQEFTVPLQPPTATISGLKPGVDYTITVYAVTSGLNDRVLFIPISINYRT
34	2′Del C6 PR4 (designed binder) EVVAATPTSLLISWRHPHFPTRYYRITYGETGGNSPVQEFTVPLQPPTATISGLKPGVDYTITVYAVTMGFMAHELMVPISINYRT
22	2′Del F5 PR4 (designed binder) EVVAATPTSLLISWRHPHFPTRYYRITYGETGGNSPVQEFTVPLQPPTATISGLKPGVDYTITVYAVTLVHNDRELLTPISINYRT
15	2′Del C8 PR4 (designed binder) EVVAATPTSLLISWRHPHFPTRYYRITYGETGGNSPVQEFTVPLQPPTATISGLKPGVDYTITVYAVTTAHNGHELLTPISINYRT
33	2′Del E3 PR4 (designed binder) EVVAATPTSLLISWRHPHFPTRYYRITYGETGGNSPVQEFTVPLQPPTATISGLKPGVDYTITVYAVTLGPYEHELLTPISINYRT
34	2′Del C11 PR4 (designed binder) EVVAATPTSLLISWRHPHFPTRYYRITYGETGGNSPVQEFTVPLQPPTATISGLKPGVDYTITVYAVTAGLNEHELLIPISINYRT
26	2′Del C5 PR4 (designed binder) EVVAATPTSLLISWRHPHFPTRYYRITYGETGGNSPVQEFTVPLQPPTATISGLKPGVDYTITVYAVTPGHNDHELMVPISINYRT
22	2′Del F6 PR4 (designed binder) EVVAATPTSLLISWRHPHFPTRYYRITYGETGGNSPVQEFTVPLQPPTATISGLKPGVDYTITVYAVTLGWNDHELYIPISINYRT
34	2′Del D10 PR4 (designed binder) EVVAATPTSLLISWRHPHFPTRYYRITYGETGGNSPVQEFTVPLQPPTATISGLKPGVDYTITVYAVTLADNARELLTPISINYRT
38	2′Del F7 PR4 (designed binder) EVVAATPTSLLISWRHPHFPTRYYRITYGETGGNSPVQEFTVPLQPPTATISGLKPGVDYTITVYAVTLGLRDRELFVPISINYRT

More lines, now with the values behind:

Binder	Binding to 1 nM KDR, % [%]
1′DelE2 PR4 (designed binder) EVVAATPTSLLISWRHPHFPTRYYRITYGETGGNSPVQEFTVPLQPPTATISGLKPGVDYTITVYAVTVGQNDHELLTPISINYRT	16
2′Del B5 PR4 (designed binder) EVVAATPTSLLISWRHPHFPTRYYRITYGETGGNSPVQEFTVPLQPPTATISGLKPGVDYTITVYAVTAGRHDHELIIPISINYRT	33
1′DelH10 PR4 (designed binder) EVVAATPTSLLISWRHPHFPTRYYRITYGETGGNSPVQEFTVPLQPPTATISGLKPGVDYTITVYAVTFAQNDHELLTPISINYRT	17
2′Del C1 PR4 (designed binder) EVVAATPTSLLISWRHPHFPTRYYRITYGETGGNSPVQEFTVPLQPPTATISGLKPGVDYTITVYAVTAGLDEHELLIPISINYRT	32
2′Del B3 PR4 (designed binder) EVVAATPTSLLISWRHPHFPTRYYRITYGETGGNSPVQEFTVPLQPPTATISGLKPGVDYTITVYAVTDAPNGRELMVPISINYRT	17
1′DelD1 PR4 (designed binder) EVVAATPTSLLISWRHPHFPTRYYRITYGETGGNSPVQEFTVPLQPPTATISGLKPGVDYTITVYAVTVTQNDHELLTPISINYRT	16
2′Del B2 PR4 (designed binder) EVVAATPTSLLISWRHPHFPTRYYRITYGETGGNSPVQEFTVPLQPPTATISGLKPGVDYTITVYAVTTGWNGNELFTPISINYRT	29
1′DelE7 PR4 (designed binder) EVVAATPTSLLISWRHPHFPTRYYRITYGETGGNSPVQEFTVPLQPPTATISGLKPGVDYTITVYAVTVAQNGHELFTPISINYRT	22
1′Del G10 PR4 (designed binder) EVVAATPTSLLISWRHPHFPTRYYRITYGETGGNSPVQEFTVPLQPPTATISGLKPGVDYTITVYAVTMAQNGHKLMTPISINYRT	36
1′DelA1 PR4 (designed binder) EVVAATPTSLLISWRHPHFPTRYYRITYGETGGNSPVQEFTVPLQPPTATISGLKPGVDYTITVYAVTVAQNDHELLTPISINYRT	14
1′DelH12 PR4 (designed binder) EVVAATPTSLLISWRHPHFPTRYYRITYGETGGNSPVQEFTVPLQPPTATISGLKPGVDYTITVYAVTVAQNERELFTPISINYRT	18
1′DelF3 PR4 (designed binder) EVVAATPTSLLISWRHPHFPTRYYRITYGETGGNSPVQEFTVPLQPPTATISGLKPGVDYTITVYAVTMAQNDHKLFTPISINYRT	16
1′DelA2 PR4 (designed binder) EVVAATPTSLLISWRHPHFPTRYYRITYGETGGNSPVQEFTVPLQPPTATISGLKPGVDYTITVYAVTVAQNGHQLFTPISINYRT	23
2′Del B4 PR4 (designed binder) EVVAATPTSLLISWRHPHFPTRYYRITYGETGGNSPVQEFTVPLQPPTATISGLKPGVDYTITVYAVTSGHNGHEVMTPISINYRT	31
1′DelD2 PR4 (designed binder) EVVAATPTSLLISWRHPHFPTRYYRITYGETGGNSPVQEFTVPLQPPTATISGLKPGVDYTITVYAVTVAKNDHELLTPISINYRT	17
2′Del A2 PR4 (designed binder) EVVAATPTSLLISWRHPHFPTRYYRITYGETGGNSPVQEFTVPLQPPTATISGLKPGVDYTITVYAVTGGRNGHTLLTPISINYRT	17
1′DelD5 PR4 (designed binder) EVVAATPTSLLISWRHPHFPTRYYRITYGETGGNSPVQEFTVPLQPPTATISGLKPGVDYTITVYAVTVGQNHHELFTPISINYRT	17
1′DelH5 PR4 (designed binder) EVVAATPTSLLISWRHPHFPTRYYRITYGETGGNSPVQEFTVPLQPPTATISGLKPGVDYTITVYAVTVAQNDRELFTPISINYRT	17
2′Del A11 PR4 (designed binder) EVVAATPTSLLISWRHPHFPTRYYRITYGETGGNSPVQEFTVPLQPPTATISGLKPGVDYTITVYAVTEDIRVLWLNTTISINYRT	16
1′DelE6 PR4 (designed binder) EVVAATPTSLLISWRHPHFPTRYYRITYGETGGNSPVQEFTVPLQPPTATISGLKPGVDYTITVYAVTLAQNDRELLTPISINYRT	24
